Data: patent US20080312158A1 (University of California, published 2008)

Target: the molecule itself
Experiment: aggregation assay of S2 cells transfected with fasciclin IV (homophilic adhesion)
Excerpt: To ask whether fasciclin IV can function as a homophilic cell adhesion molecule, the fasciclin IV cDNA with the complete ORF was placed under the control of the inducible metallothionein promoter (Bunch et al. 1988). transfected into S2 cells, and assayed for its ability to promote adhesion in normally non-adhesive S2 cells. Following induction with copper, fasciclin IV was synthesized in these S2 cells as shown by Western blot analysis and cell surface staining of induced S2 cells with the polyclonal antiserum described above.
A restriction fragment containing the full length fasciclin IV cDNA was cloned into pRmHa-3 (Bunch et al, 1988) and co-transformed into Drosophila S2 cells (Schneider, 1972) with the plasmid pPC4 (Jokerst et al., 1989), which confers a-amanitin resistance. S2 cells were transformed using the Lipofectin Reagent and recommended protocol (BRL) with minor modifications. All other S2 cell manipulations are essentially as described (Snow et al., 1989), including adhesion assays. Fasciclin IV expression in transformed cell lines was induced for adhesion assays and histology by adding CuSO₄ to 0.7 mM and incubating for at least 48 hrs. […] Amount of protein per lane in each sample loaded: fasciclin IV protein, ˜5 ng; S2 cell membranes, […]; grasshopper membranes […]. […]

B1: Grasshopper fasciclin IV (now called G-Semaphorin I) (other)
chain: WVNDVSPKMYVQFGEERVQRFLGNESHKDHFKLLEKDHNSLLVGARNIVYNISLRDLTEFTEQRIEWHSSGAHRELCYLKGKSEDDCQNYIRVLAKIDDDRVLICGTNAYKPLCRHYALKDGDYVVEKEYEGRGLCPFDPDHNSTAIYSEGQLYSATVADFSGTDPLIYRGPLRTERSDLKQLNAPNFVNTMEYNDFIFFFFRETAVEYINCGKAIYSRVARVCKHDKGGPHQGGDRWTSFLKSRLNCSVPGDYPFYFNEIQSTSDIIEGNYGGQVEKLIYGVFTTPVNSIGGSAVCAFSMKSILESFDGPFKEQETMNSNWLAVPSLKVPEPRPGQCVNDSRTLPDVSVNFVKSHTLMDEAVPAFFTRPILIRISLQYRFTKIAVDQQVRTPDGKAYDVLFIGTDDGKVIKALNSASFDSSDTVDSVVIEELQVLPPGVPVKNLYVVRMDGDDSKLVVVSDDEILAIKLHRCGSDKITNCRECVSLQDPYCAWDNVELKCTAVGSPDWSAGKRRFIQNISLGEHKACGGRPQTEIVASPVPTQPTTKSSGDPVHSIHQAEFEPEIDNEIVIGVDDSNVIPNTLAEINHAGSKLPSSQEKLPIYTAETLTIAIVTSCLGALVVGFISGFLFSRRCRGEDYTDMPFPDQRHQLNRLTEAGLNADSPYLPPCANNKAAINLVLNVPPKNANGKNANSSAENKPIQKVKKTYI
modifications: N-linked oligosaccharides (shown by N-Glycanase treatment)
notes: also called 6F8 antigen; grasshopper Semaphorin I
binding result: no binding
